# B1: SOAT2 (parent)
# chain: SLGKQKVFIIRKSLLDELMEVQHF
# Variants of: B1
# Assay: protein stability index of a GFP-peptide fusion (GPS, HEK-293T) (PSI 1-6); higher = more stable
# Details: c terminus: a fixed tail appended
# 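Further: lentivirally expressed fusions sorted by FACS into six bins by GFP to DsRed ratio, PSI derived from sequencing read proportions per bin multiplied by bin number.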
row,Variant,protein stability index
1,ALGKQKVFIIRKSLLDELMEVQHF [S1A],2.41
2,TLGKQKVFIIRKSLLDELMEVQHF [S1T],4.03
3,CLGKQKVFIIRKSLLDELMEVQHF [S1C],2.9
4,ILGKQKVFIIRKSLLDELMEVQHF [S1I],3.6
5,KLGKQKVFIIRKSLLDELMEVQHF [S1K],2.94
6,YLGKQKVFIIRKSLLDELMEVQHF [S1Y],1.34
7,VLGKQKVFIIRKSLLDELMEVQHF [S1V],2
8,PLGKQKVFIIRKSLLDELMEVQHF [S1P],2.99
9,LLGKQKVFIIRKSLLDELMEVQHF [S1L],3.27
10,ELGKQKVFIIRKSLLDELMEVQHF [S1E],2.99
11,QLGKQKVFIIRKSLLDELMEVQHF [S1Q],2.6
12,MLGKQKVFIIRKSLLDELMEVQHF [S1M],2.1
13,HLGKQKVFIIRKSLLDELMEVQHF [S1H],2
14,FLGKQKVFIIRKSLLDELMEVQHF [S1F],1.92
15,RLGKQKVFIIRKSLLDELMEVQHF [S1R],1.94
16,NLGKQKVFIIRKSLLDELMEVQHF [S1N],2.68
17,SCGKQKVFIIRKSLLDELMEVQHF [L2C],3.02
18,SYGKQKVFIIRKSLLDELMEVQHF [L2Y],2.69
19,SHGKQKVFIIRKSLLDELMEVQHF [L2H],3.11
20,STGKQKVFIIRKSLLDELMEVQHF [L2T],3.3
21,SAGKQKVFIIRKSLLDELMEVQHF [L2A],2.94
22,SMGKQKVFIIRKSLLDELMEVQHF [L2M],2.25
23,SSGKQKVFIIRKSLLDELMEVQHF [L2S],3.5
24,SKGKQKVFIIRKSLLDELMEVQHF [L2K],1.44

row,Variant,protein stability index
1,SNGKQKVFIIRKSLLDELMEVQHF [L2N],2.58
2,SQGKQKVFIIRKSLLDELMEVQHF [L2Q],2.21
3,SVGKQKVFIIRKSLLDELMEVQHF [L2V],3.51
4,SDGKQKVFIIRKSLLDELMEVQHF [L2D],1.4
5,SRGKQKVFIIRKSLLDELMEVQHF [L2R],2.42
6,SFGKQKVFIIRKSLLDELMEVQHF [L2F],3.72
7,SEGKQKVFIIRKSLLDELMEVQHF [L2E],1.75
8,SLGKQKLFIIRKSLLDELMEVQHF [V7L],3.44
9,SLGKQKGFIIRKSLLDELMEVQHF [V7G],1.82
10,SLGKQKQFIIRKSLLDELMEVQHF [V7Q],1.82
11,SLGKQKDFIIRKSLLDELMEVQHF [V7D],1.48
12,SLGKQKYFIIRKSLLDELMEVQHF [V7Y],2.33
13,SLGKQKCFIIRKSLLDELMEVQHF [V7C],2.4
14,SLGKQKIFIIRKSLLDELMEVQHF [V7I],3.05
15,SLGKQKKFIIRKSLLDELMEVQHF [V7K],2
16,SLGKQKHFIIRKSLLDELMEVQHF [V7H],1.59
17,SLGKQKRFIIRKSLLDELMEVQHF [V7R],2.16
18,SLGKQKFFIIRKSLLDELMEVQHF [V7F],2.56
19,SLGKQKSFIIRKSLLDELMEVQHF [V7S],1.74
20,SLGKQKNFIIRKSLLDELMEVQHF [V7N],1.92
21,SLGKQKPFIIRKSLLDELMEVQHF [V7P],1.49
22,SLGKQKEFIIRKSLLDELMEVQHF [V7E],1.67
23,SLGKQKTFIIRKSLLDELMEVQHF [V7T],2.16
24,SLGKQKMFIIRKSLLDELMEVQHF [V7M],1.82

row,Variant,protein stability index
1,SLGKQKWFIIRKSLLDELMEVQHF [V7W],2.34
2,SLGKQKAFIIRKSLLDELMEVQHF [V7A],1.72
3,SLGCQKVFIIRKSLLDELMEVQHF [K4C],2.88
4,SLGTQKVFIIRKSLLDELMEVQHF [K4T],2.4
5,SLGEQKVFIIRKSLLDELMEVQHF [K4E],1.52
6,SLGWQKVFIIRKSLLDELMEVQHF [K4W],2.19
7,SLGMQKVFIIRKSLLDELMEVQHF [K4M],2.15
8,SLGHQKVFIIRKSLLDELMEVQHF [K4H],2.31
9,SLGNQKVFIIRKSLLDELMEVQHF [K4N],1.78
10,SLGQQKVFIIRKSLLDELMEVQHF [K4Q],1.96
11,SLGSQKVFIIRKSLLDELMEVQHF [K4S],2.25
12,SLGLQKVFIIRKSLLDELMEVQHF [K4L],2.54
13,SLGPQKVFIIRKSLLDELMEVQHF [K4P],1.74
14,SLGRQKVFIIRKSLLDELMEVQHF [K4R],2.29
15,SLGVQKVFIIRKSLLDELMEVQHF [K4V],2.8
16,SLGYQKVFIIRKSLLDELMEVQHF [K4Y],2.8
17,SLGDQKVFIIRKSLLDELMEVQHF [K4D],1.91
18,SLGAQKVFIIRKSLLDELMEVQHF [K4A],1.55
19,SLGFQKVFIIRKSLLDELMEVQHF [K4F],2.22
20,SLGIQKVFIIRKSLLDELMEVQHF [K4I],2.17
21,SLGKLKVFIIRKSLLDELMEVQHF [Q5L],3.31
22,SLGKRKVFIIRKSLLDELMEVQHF [Q5R],3.01
23,SLGKSKVFIIRKSLLDELMEVQHF [Q5S],2.73
24,SLGKYKVFIIRKSLLDELMEVQHF [Q5Y],1.85

row,Variant,protein stability index
1,SLGKMKVFIIRKSLLDELMEVQHF [Q5M],3.06
2,SLGKGKVFIIRKSLLDELMEVQHF [Q5G],3.96
3,SLGKDKVFIIRKSLLDELMEVQHF [Q5D],2.01
4,SLGKFKVFIIRKSLLDELMEVQHF [Q5F],3.55
5,SLGKPKVFIIRKSLLDELMEVQHF [Q5P],2.87
6,SLGKWKVFIIRKSLLDELMEVQHF [Q5W],2.93
7,SLGKEKVFIIRKSLLDELMEVQHF [Q5E],2.04
8,SLGKVKVFIIRKSLLDELMEVQHF [Q5V],2.91
9,SLGKKKVFIIRKSLLDELMEVQHF [Q5K],2.63
10,SLGKHKVFIIRKSLLDELMEVQHF [Q5H],2.05
11,SLGKIKVFIIRKSLLDELMEVQHF [Q5I],2.44
12,SLGKAKVFIIRKSLLDELMEVQHF [Q5A],2.54
13,SLGKTKVFIIRKSLLDELMEVQHF [Q5T],2.23
14,SLGKCKVFIIRKSLLDELMEVQHF [Q5C],2.75
15,SLGKNKVFIIRKSLLDELMEVQHF [Q5N],2.51
16,SLGKQKVFGIRKSLLDELMEVQHF [I9G],1.79
17,SLGKQKVFFIRKSLLDELMEVQHF [I9F],2.41
18,SLGKQKVFDIRKSLLDELMEVQHF [I9D],2.18
19,SLGKQKVFCIRKSLLDELMEVQHF [I9C],1.76
20,SLGKQKVFAIRKSLLDELMEVQHF [I9A],1.99
21,SLGKQKVFEIRKSLLDELMEVQHF [I9E],1.76
22,SLGKQKVFHIRKSLLDELMEVQHF [I9H],2.22

# From the supplement of paper PMC10567573
